Data: US20260185137

B1: R2-WT, tandem RING dimer construct of rhesus monkey TRIM5alpha (protein)
chain: ASGILLNVKEEVTCPICLELLTEPLSLHCGHSFCQACITANHKKSMLYKEGERSCPVCRISYQPENIQPNRHVANIVEKLRGSASGILLNVKEEVTCPICLELLTEPLSLHCGHSFCQACITANHKKSMLYKEGERSCPVCRISYQPENIQPNRHVANIVEKLREVKLSPEEGQ
B2: R1-I77R, RING domain construct of rhesus monkey TRIM5alpha with the I77R mutation (protein)
chain: ASGILLNVKEEVTCPICLELLTEPLSLHCGHSFCQACITANHKKSMLYKEGERSCPVCRISYQPENIQPNRHVANRVEKLREVKLSPEE
B3: R3-I77R, trimeric RING-foldon construct of rhesus monkey TRIM5alpha with the I77R mutation (protein)
chain: ASGILLNVKEEVTCPICLELLTEPLSLHCGHSFCQACITANHKKSMLYKEGERSCPVCRISYQPENIQPNRHVANRVEKLREVKLSPEEGQKVDGYIPEAPRDGQAYVRKDGEWVFLSTFLHHHHHH
B4: R3-WT, trimeric RING construct of rhesus monkey TRIM5alpha fused to T4 fibritin foldon (protein)
chain: ASGILLNVKEEVTCPICLELLTEPLSLHCGHSFCQACITANHKKSMLYKEGERSCPVCRISYQPENIQPNRHVANIVEKLREVKLSPEEGQKVDGYIPEAPRDGQAYVRKDGEWVFLSTFLHHHHHH

Key:
[1] = molecular target: AF594-UBE2N~AF488-Ub/UBE2V2 conjugate, P61088
Chain of AF594-UBE2N~AF488-Ub/UBE2V2 conjugate, P61088 (P61088 whole entry, looked up): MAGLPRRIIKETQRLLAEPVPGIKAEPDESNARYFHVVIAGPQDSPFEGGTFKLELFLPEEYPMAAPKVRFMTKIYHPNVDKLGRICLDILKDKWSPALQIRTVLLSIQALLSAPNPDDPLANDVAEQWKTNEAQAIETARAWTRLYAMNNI

[2] = molecular target: AF594-UBE2W~AF488-Ub conjugate, Q96B02
Chain of AF594-UBE2W~AF488-Ub conjugate, Q96B02 (Q96B02 whole entry, looked up): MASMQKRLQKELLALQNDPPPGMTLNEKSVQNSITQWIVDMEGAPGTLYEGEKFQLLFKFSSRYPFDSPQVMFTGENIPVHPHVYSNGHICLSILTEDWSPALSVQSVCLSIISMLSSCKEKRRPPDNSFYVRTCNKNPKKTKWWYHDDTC

Protein | E3 activity (kcat/Km) for ubiquitin discharge, FRET ubiquitin discharge assay [1] | E3 activity (initial slope of Michaelis-Menten curve of FRET decay amplitude), FRET ubiquitin discharge assay [2] | E3 activity per RING monomer for ubiquitin discharge, FRET ubiquitin discharge assay [1]
B1 | The E3 activity of the R2-WT is also significantly higher than that of the R1-WT |  | 
B2 | catalysis of ubiquitin discharge from the UBE2N/V2-Ub conjugate is virtually abolished by the I77R mutation in the R1-177R and R3-177R constructs | the R3-177R and R1-177R constructs retained less than 10% of the R3-WT and R1-WT E3 activity, respectively | 
B3 | catalysis of ubiquitin discharge from the UBE2N/V2-Ub conjugate is virtually abolished by the I77R mutation in the R1-177R and R3-177R constructs | the R3-177R and R1-177R constructs retained less than 10% of the R3-WT and R1-WT E3 activity, respectively | 
B4 |  | significantly higher activity of the R3-WT construct in comparison to R2-WT | the E3 activity per RING monomer is lower in the R3-WT construct than in R2-WT
